# From PMC10192418 (2023)
# B1: linear peptide 3 [modified: 5(6)-carboxyfluorescein on the N-terminus; 5(6)-carboxyfluorescein on the N-terminus] / B-RCAL (BÜHLMANN recombinant calprotectin; His6-linker-S100A9-linker-S100A8) [human] (parent complex)
# chain 1: RSPESVAFPMFQSHWYSG
# chain 2: MTCKMSQLERNIETIINTFHQYSVKLGHPDTLNQGEFKELVRKDLQNFLKKENKNEKVIEHIMEDLDTNADKQLSFEEFIMLMARLTWASHEKMHEGDEGPGHHHKPGLGEGTPLEVLFQGPMLTELEKALNSIIDVYHKYSLIKGNFHAVYRDDLKKLLETECPQYIRKKGADVWFKELDINTDGAVNFQEFLILVIKMGVAAHKKSHEESHKE
# Variants of: B1
# Test: SPR; peptide injected at 500 nM; single measurement; calprotectin immobilized; read off a plot
row,response [RU],Variant
1,~130,chain 1 RSPASVAFPMFQSHWYSG [chain 1 E4A]
